B1: TPR t1 (parent)
chain: GACCAAUCUGCCCUCAGAGCUCGAGAACAUCUUCGGAUGCAGAGGAGGCAGGCUUCGGUGGCGCGAUAGCGCCAACGUCCUCAACCUCCAAUGCAUCCCACCACAUGAUGAUGCCUGAAGAGCCUUGGUUUUUUG

Variants of: B1
Assay: polymerase ribozyme fitness, log enrichment relative to wild type (log ratio); higher = more active; in vitro selection for triplet polymerase activity
How it was run: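 After PCR construction and transcription, each subunit's mutant library from a heterodimeric triplet polymerase ribozyme was annealed with a biotinylated primer, the partner subunit and triplets. Incubation was frozen, at −7 °C, and extended constructs were gel-excised, bound to streptavidin beads and amplified by RT-PCR, in one selection round done in triplicate. Fitness is the logarithm of a genotype's enrichment divided by that of the wild type, from inverse-variance-weighted replicate averages of Illumina-sequenced inputs and outputs. The base of the logarithm is 2, and genotypes needed ≥10 input reads and ≥1 read per output.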

Variant	polymerase ribozyme fitness (log ratio)
C28U A29G	-5.97
G93A C114G	-2.93
C49A A105C	-2.48
U30G C49G C80G G117C	-7.34
G10A G48A G63U C82G A91U G117C	-5.31
C8G G35C C89U	-4.98
C8U A27C G63C C79A A119G	-4.92
A6U G19U A121U	-1.67
U7C G57U	0.0649
G44A C70U A103U G117U	-5.43
A41U G52A G117U	-4.85
C15A A66G	-2.15
G93A U112A	0.918
C56A C99U C102U	-5.77
U14G C72A	-2.6
C11U A26U C49G C73U	-3.93
C3A C76G G93A C115G	-5.76
A18U C86A C89U C123U	-3.07
G17U G63C C73U	-1.67
C12U G69C	-0.628
U96A A121C	1.1
C8U C104U	0.275
G44A A50U G60U U132C	-2.38
A6G A16G G17U A18G G47A G61U	-3.02

Variant	polymerase ribozyme fitness (log ratio)
C12G G71C A105G U125A	-4.36
C20A G35U	-5.42
A6U C8A G52U C53A C72A U92A C101A U130G	-5.85
G120C U130A	0.0796
C53U G61A A105C	-2.22
C22A C86G	-4.67
A84C C85U U87A C89G C124A	-5.8
C28A C86U A111U	-2.22
G39A G48A A100C G120A	-1.06
C12U G60U G69A C86U C101A U112C	-6.42
A6G C72U	0.164
U7G G65A	-4.77
C102U U106C G113A A121C U131G	-3.34
C8U C20A C53U U54A C89G	-4.08
U7G A16C U55G C56U A84G	-4.09
C56U U81C	0.0987
A26G G42C	-4.99
U55C C70A C97U U116A	-4.83
U55A G57A G71C G113A	-2.54
C11A U87A	-1.66
A16C C97U A100U	-3.88
G58A G71A C89A C123A	-3.72
A5C G35U C56U G63A C70U U109A G117C U125G U130A	-6.63
G10U G48A G93A C114G	-5.11

Variant	polymerase ribozyme fitness (log ratio)
A66C U130C	-0.918
C28U G63C U78C U92G C99G A103U G110A	-4.52
C31A G44U C101U C124G	-5.62
G48U U54G	-0.42
G17U C40G A90G A95U C115G	-3.65
A2C G42A A46G G69U C115G	-4.92
A46G A90C C99U U106C	-4.81
A29G U55G G58A C72G U131C U133G	-2.75
A74U G113U	-3.37
A29U C49U C64U U106A C115A U132C	-2.46
C40A G48A C70U	-2.07
C12A A46U C49U A95G C99U A111G U116A	-6.56
A6G C72G C89U	-0.661
G60C C79G G122A	-2.36
G60A C89A	-1.99
G48U C76G G110A G127A	-2.63
C79U C89A C115A	-0.609
C49A C70U C82A C104U A105U C123G G135U	-5.46
G19A C64U	-2.88
C11A G47C	-2.77
C49A U81C U129G	-3.78
C12U C15G G39A C56A G120A	0.312
C114A U133A G135C	-1.08
C28U C56U C73G U78C C101A	-5.44

Variant	polymerase ribozyme fitness (log ratio)
U32G A119G	-5.95
C49U G60C	-0.958
A18U G42A C53G C85U C89A	-3.31
A5C C64U G77U G110A	-3.72
C49A G135U	-1.83
G47C A95G U133A	-2.16
G63A C102U	-3.27
C13U C80U A84C C124U	1.02
C34A G127C	-3.8
C53U C70A A84C A100U	-3.17
C94G G110A	-2.23
G10A A18U C40U U59G G93A	-2.28
A2U A43G G45A C72G A84G A111U	-6.25
G39C G48U C62U	-1.74
U9C C12G C28U C73U G110C	-1.73
G36U C53U G63A C123G	-0.478
C12A A18C U112C C124U	-0.619
C8G C20G G44U	-4.75
C56G G77A	-0.468
U55G G69A U112C G120C	-2.49
C8G G135U	-0.819
A37G A83C U125A	-0.963
A37U U78C U87C	0.269
C49U G71U	-0.77

Variant	polymerase ribozyme fitness (log ratio)
G47A C62G C72U	-4.13
A16C G48A C73U	-3.7
A5U U59A U92A U129G	-3.92
G63C C124U	0.611
A46U A91G	-1.96
U78A C124U U125A U133C	1.84
U9A U14G C73G G117C	-1.75
C12U G122U	1.06
U7C C62U C99G U112G U132C U134A G135U	-6.65
C99U C123A	-3.32
A5C U7A C8A C80U	-1.09
G17C C49A C72U C82U C114U	-4.65
G10A C28U A46U A83C A84C C124A	-2.98
C12G G48U C62U	-1
C85G C86A	-1.69
G69C C70G C82A	-4.81
U9A G47U G63C U130C	0.0031
U9C C73A C85G	-0.637
G23U A37G C94G	-6.35
A5U G39C A105U	-3.56
A90G A95G U133G	-0.0907
C8A U21G	-1.24
A5G U87C	-0.474
G19A G71C G127C	-4.23

Variant	polymerase ribozyme fitness (log ratio)
G39U A41G G45A A119G U132G G135U	-2.12
C12A A37G U132A	-1.37
A6U G60C	0.0676
C70A A111G	-1.42
G61U C82A C89G C101A C102A U112C C123A	-7.12
C20U C72U C98A	-5.82
C22G C34G C102U C123A	-4.03
C72A C86U A108U	-5.12
C49U G69U U78C U81A C114G G117U G127U	-5.33
U14C G36C U133A	-4.29
A18U C114G	-4.17
U116C A119G	1.96
U116A U129A	-4.24
A6C C56G	-0.703
C40U C72U C98G G127U U131C	-6.34
C56A G60A	-0.181
C40G C56U G69U	-3.63
G45U A66C	-2.87
C40A U129G U131A G135C	-4.21
C11U G36A G63U	-2.37
G36U U87C C115U A119G U131C	1.61
G44A G69C C102A G122A	-5.57
C22G U106C C123G U133G	-2.48
A29U A50U U78A G93C	-4.11

Variant	polymerase ribozyme fitness (log ratio)
U21C G110U G113U	-4.79
U9C G19U U81C U130C	-3.09
U96C G128U	-1.67
C12A C70A U92A	-5.67
C3U C13U C85U U87A A95C	-2.29
U96C C102U G113C	-4.89
G17U C70U U87A	-4.04
C70U C79U	0.361
C34G G107A	-7.98
G39A A84C U106A	-0.784
G45C G69A U87C U130C	-2.8
U59C A83U	-0.619
C4G G45C C70A	-4.27
A6U C8A A37G G61U C98A	-3.75
A46G A91C G93A	-3.21
G47U C72U U87C C98G U112A	-7.3
G10C C99U	-4.44
G48A C70A	-2.36
C34G C73U C104G U116C A121C G122U	-6.01
C3U C12G G71U	-0.231
G42A C56G	-1.49
C13U C82G C99U	-3.96
C53U C72A A91G U132A	0.186

From the RNAGym collection of RNA variant scans (doi:10.1073/pnas.2313332121)
